Laboratory results published in patent publication US20230295597.

T1: von Willebrand factor (vWF), substrate of the ADAMTS-13 activity assay, P04275
T1 chain: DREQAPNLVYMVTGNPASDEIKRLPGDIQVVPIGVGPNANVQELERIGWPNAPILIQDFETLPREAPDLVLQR

B1: truncated recombinant human ADAMTS-13 variant (MDTCS), trADAMTS-13 WT (protein)
chain: RSAAGGILHLELLVAVGPDVFQAHQEDTERYVLTNLNIGAELLRDPSLGAQFRVHLVKMVILTEPEGAPNITANLTSSLLSVCGWSQTINPEDDTDPGHADLVLYITRFDLELPDGNRQVRGVTQLGGACSPTWSCLITEDTGFDLGVTIAHEIGHSFGLEHDGAPGSGCGPSGHVMASDGAAPRAGLAWSPCSRRQLLSLLSAGRARCVWDPPRPQPGSAGHPPDAQPGLYYSANEQCRVAFGPKAVACTFAREHLDMCQALSCHTDPLDQSSCSRLLVPLLDGTECGVEKWCSKGRCRSLVELTPIAAVHGRWSSWGPRSPCSRSCGGGVVTRRRQCNNPRPAFGGRACVGADLQAEMCNTQACEKTQLEFMSQQCARTDGQPLRSSPGGASFYHWGAAVPHSQGDALCRHMCRAIGESFIMKRGDSFLDGTRCMPSGPREDGTLSLCVSGSCRTFGCDGRMDSQQVWDRCQVCGGDNSTCSPRKGSFTAGRAREYVTFLTVTPNLTSVYIANHRPLFTHLAVRIGGRYVVAGKMSISPNTTYPSLLEDGRVEYRVALTEDRLPRLEEIRIWGPLQEDADIQVYRRYGEEYGNLTRPDITFTYFQPKPRQADYKDHDGDYKDHDIDYKDDDDK
B2: trADAMTS-13^V313D (truncated ADAMTS-13 mutant, Val313 to Asp) (protein)
chain: AAGGILHLELLVAVGPDVFQAHQEDTERYVLTNLNIGAELLRDPSLGAQFRVHLVKMVILTEPEGAPNITANLTSSLLSVCGWSQTINPEDDTDPGHADLVLYITRFDLELPDGNRQVRGVTQLGGACSPTWSCLITEDTGFDLGVTIAHEIGHSFGLEHDGAPGSGCGPSGHVMASDGAAPRAGLAWSPCSRRQLLSLLSAGRARCVWDPPRPQPGSAGHPPDAQPGLYYSANEQCRDAFGPKAVACTFAREHLDMCQALSCHTDPLDQSSCSRLLVPLLDGTECGVEKWCSKGRCRSLVELTPIAAVHGRWSSWGPRSPCSRSCGGGVVTRRRQCNNPRPAFGGRACVGADLQAEMCNTQACEKTQLEFMSQQCARTDGQPLRSSPGGASFYHWGAAVPHSQGDALCRHMCRAIGESFIMKRGDSFLDGTRCMPSGPREDGTLSLCVSGSCRTFGCDGRMDSQQVWDRCQVCGGDNSTCSPRKGSFTAGRAREYVTFLTVTPNLTSVYIANHRPLFTHLAVRIGGRYVVAGKMSISPNTTYPSLLEDGRVEYRVALTEDRLPRLEEIRIWGPLQEDADIQVYRRYGEEYGNLTRPDITFTYFQPKPRQADYKDHDGDYKDHDIDYKDDDDK
B3: trADAMTS-13^V313A (truncated ADAMTS-13 mutant, Val313 to Ala) (protein)
chain: AAGGILHLELLVAVGPDVFQAHQEDTERYVLTNLNIGAELLRDPSLGAQFRVHLVKMVILTEPEGAPNITANLTSSLLSVCGWSQTINPEDDTDPGHADLVLYITRFDLELPDGNRQVRGVTQLGGACSPTWSCLITEDTGFDLGVTIAHEIGHSFGLEHDGAPGSGCGPSGHVMASDGAAPRAGLAWSPCSRRQLLSLLSAGRARCVWDPPRPQPGSAGHPPDAQPGLYYSANEQCRAAFGPKAVACTFAREHLDMCQALSCHTDPLDQSSCSRLLVPLLDGTECGVEKWCSKGRCRSLVELTPIAAVHGRWSSWGPRSPCSRSCGGGVVTRRRQCNNPRPAFGGRACVGADLQAEMCNTQACEKTQLEFMSQQCARTDGQPLRSSPGGASFYHWGAAVPHSQGDALCRHMCRAIGESFIMKRGDSFLDGTRCMPSGPREDGTLSLCVSGSCRTFGCDGRMDSQQVWDRCQVCGGDNSTCSPRKGSFTAGRAREYVTFLTVTPNLTSVYIANHRPLFTHLAVRIGGRYVVAGKMSISPNTTYPSLLEDGRVEYRVALTEDRLPRLEEIRIWGPLQEDADIQVYRRYGEEYGNLTRPDITFTYFQPKPRQADYKDHDGDYKDHDIDYKDDDDK
B4: trADAMTS-13^R312A (truncated ADAMTS-13 mutant, Arg312 to Ala) (protein)
chain: AAGGILHLELLVAVGPDVFQAHQEDTERYVLTNLNIGAELLRDPSLGAQFRVHLVKMVILTEPEGAPNITANLTSSLLSVCGWSQTINPEDDTDPGHADLVLYITRFDLELPDGNRQVRGVTQLGGACSPTWSCLITEDTGFDLGVTIAHEIGHSFGLEHDGAPGSGCGPSGHVMASDGAAPRAGLAWSPCSRRQLLSLLSAGRARCVWDPPRPQPGSAGHPPDAQPGLYYSANEQCAVAFGPKAVACTFAREHLDMCQALSCHTDPLDQSSCSRLLVPLLDGTECGVEKWCSKGRCRSLVELTPIAAVHGRWSSWGPRSPCSRSCGGGVVTRRRQCNNPRPAFGGRACVGADLQAEMCNTQACEKTQLEFMSQQCARTDGQPLRSSPGGASFYHWGAAVPHSQGDALCRHMCRAIGESFIMKRGDSFLDGTRCMPSGPREDGTLSLCVSGSCRTFGCDGRMDSQQVWDRCQVCGGDNSTCSPRKGSFTAGRAREYVTFLTVTPNLTSVYIANHRPLFTHLAVRIGGRYVVAGKMSISPNTTYPSLLEDGRVEYRVALTEDRLPRLEEIRIWGPLQEDADIQVYRRYGEEYGNLTRPDITFTYFQPKPRQADYKDHDGDYKDHDIDYKDDDDK
B5: trADAMTS-13^R312K (truncated ADAMTS-13 mutant, Arg312 to Lys) (protein)
chain: AAGGILHLELLVAVGPDVFQAHQEDTERYVLTNLNIGAELLRDPSLGAQFRVHLVKMVILTEPEGAPNITANLTSSLLSVCGWSQTINPEDDTDPGHADLVLYITRFDLELPDGNRQVRGVTQLGGACSPTWSCLITEDTGFDLGVTIAHEIGHSFGLEHDGAPGSGCGPSGHVMASDGAAPRAGLAWSPCSRRQLLSLLSAGRARCVWDPPRPQPGSAGHPPDAQPGLYYSANEQCKVAFGPKAVACTFAREHLDMCQALSCHTDPLDQSSCSRLLVPLLDGTECGVEKWCSKGRCRSLVELTPIAAVHGRWSSWGPRSPCSRSCGGGVVTRRRQCNNPRPAFGGRACVGADLQAEMCNTQACEKTQLEFMSQQCARTDGQPLRSSPGGASFYHWGAAVPHSQGDALCRHMCRAIGESFIMKRGDSFLDGTRCMPSGPREDGTLSLCVSGSCRTFGCDGRMDSQQVWDRCQVCGGDNSTCSPRKGSFTAGRAREYVTFLTVTPNLTSVYIANHRPLFTHLAVRIGGRYVVAGKMSISPNTTYPSLLEDGRVEYRVALTEDRLPRLEEIRIWGPLQEDADIQVYRRYGEEYGNLTRPDITFTYFQPKPRQADYKDHDGDYKDHDIDYKDDDDK

How the values were obtained:
[1] = target: ultralarge von Willebrand factor multimers present in human plasma, P04275
[2] = target: T1, von Willebrand factor (vWF), substrate …
[3] = target: anti ADAMTS-13 autoantibodies in plasma from patients with acquired ADAMTS-13 deficiency (TTP plasma)

| Protein | catalytic activity on vWF [2] | other results |
| --- | --- | --- |
| B1 | – | proteolysis of vWF multimers in human plasma, trADAMTS-13 300 nM, Western blot with anti-vWF antibody [1]: the inactivation of trADAMTS-13 by tPA prevented the proteolysis of ULvWV multimers present in human plasma (FIG. 4D) |
| B2 | – | decrease of proteolytic activity on vWF against the un-mutated variant [2]: replacing V^313 with D (trADAMTS-13^V313D) decreased by more than 50% the proteolytic activity of the resultant ADAMTS-13 variant on vWF (FIG. 6B) |
| B3 | Replacing V^313 with A (trADAMTS-13^V313A), also had no significant effect on its proteolytic activity on vWF (FIG. 6B) | – |
| B4 | trADAMTS-13^R312A catalytic activity was not affected significantly by replacing R^312 with A (FIG. 6B) | – |
| B5 | trADAMTS-13^R312K was the most potent variant exhibiting enhanced proteolytic activity on vWF (FIG. 6B), in comparison with the un-mutated protein trADAMTS-13 WT | proteolytic activity on vWF after 2 hours or 24 hours with TTP plasma [3]: The substantial resistance to inhibition of trADAMTS-13^R312K was shown around 2 hours up to 24 hours following incubation with TTP plasma (FIG. 9B) |
